Laboratory results reported in paper PMC7961048 (2021).
Read-outs that look alike come from different tables or passages of the source. Non-standard residues stand in square brackets, D forms with d. No end group written: not given here. *: point of attachment. Biotin = O=C1N[C@H]2[C@H](CS[C@H]2CCCCC(=O)*)N1; pT = C[C@@H](OP(=O)(O)O)[C@H](N)C(=O)O; ttds = NCCCOCCOCCOCCCNC(=O)CCC(=O)*

Tests used:
[1] = biological target: T1, full-length human 14-3-3γ fused to the C terminus of MBP (human, UniProt P61981 1-247); assay: FP; with FSC
T1 chain: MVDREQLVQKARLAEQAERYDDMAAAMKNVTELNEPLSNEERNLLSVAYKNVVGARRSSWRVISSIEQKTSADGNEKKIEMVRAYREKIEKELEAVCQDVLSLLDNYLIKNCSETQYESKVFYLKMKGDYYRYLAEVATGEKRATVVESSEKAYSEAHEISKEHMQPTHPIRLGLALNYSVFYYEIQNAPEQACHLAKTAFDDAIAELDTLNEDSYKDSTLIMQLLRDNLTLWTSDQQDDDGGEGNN

[2] = biological target: T2, full-length human 14-3-3η fused to the C terminus of MBP (human, UniProt Q04917 1-246); assay: FP
T2 chain: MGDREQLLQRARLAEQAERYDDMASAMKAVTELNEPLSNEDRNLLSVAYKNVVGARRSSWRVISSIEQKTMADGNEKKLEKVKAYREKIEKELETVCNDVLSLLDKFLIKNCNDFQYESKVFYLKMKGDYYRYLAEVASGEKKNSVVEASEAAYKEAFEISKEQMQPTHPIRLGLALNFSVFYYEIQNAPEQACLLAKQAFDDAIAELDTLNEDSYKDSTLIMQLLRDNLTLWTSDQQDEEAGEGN

[3] = biological target: T3, full-length human 14-3-3τ fused to the C terminus of MBP (human, UniProt P27348 1-245); assay: FP
T3 chain: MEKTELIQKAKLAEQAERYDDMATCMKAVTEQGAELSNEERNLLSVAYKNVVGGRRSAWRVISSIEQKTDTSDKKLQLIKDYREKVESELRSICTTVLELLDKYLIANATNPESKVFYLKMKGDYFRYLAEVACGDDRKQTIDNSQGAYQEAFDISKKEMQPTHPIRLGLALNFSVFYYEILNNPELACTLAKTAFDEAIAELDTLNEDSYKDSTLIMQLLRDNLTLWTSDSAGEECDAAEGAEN

[4] = biological target: T4, full-length human 14-3-3σ fused to the C terminus of MBP (human, UniProt P31947 1-248); assay: FP
T4 chain: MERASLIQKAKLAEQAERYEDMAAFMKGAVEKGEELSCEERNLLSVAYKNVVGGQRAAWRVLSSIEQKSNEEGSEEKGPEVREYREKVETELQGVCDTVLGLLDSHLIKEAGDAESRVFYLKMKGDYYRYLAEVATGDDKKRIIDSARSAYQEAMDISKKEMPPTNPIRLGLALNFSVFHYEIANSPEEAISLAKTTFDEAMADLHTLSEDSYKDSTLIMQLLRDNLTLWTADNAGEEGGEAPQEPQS

[5] = biological target: T1, full-length human 14-3-3γ fused to the …; assay: FP
[6] = biological target: T2, full-length human 14-3-3η fused to the …; assay: FP
[7] = biological target: T1, full-length human 14-3-3γ fused to the …; assay: FP; +FSC
[8] = biological target: T5, full-length human 14-3-3ζ fused to the C terminus of MBP (human, UniProt P63104 1-245); assay: FP; +FSC
T5 chain: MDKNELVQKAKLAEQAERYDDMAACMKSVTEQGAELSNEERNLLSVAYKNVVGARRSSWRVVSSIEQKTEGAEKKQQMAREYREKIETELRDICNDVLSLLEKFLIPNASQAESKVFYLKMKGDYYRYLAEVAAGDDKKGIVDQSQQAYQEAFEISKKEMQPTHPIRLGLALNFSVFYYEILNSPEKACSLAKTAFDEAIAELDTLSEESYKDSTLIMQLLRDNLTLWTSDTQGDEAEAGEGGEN

[9] = biological target: T5, full-length human 14-3-3ζ fused to the …; assay: FP; with FSC
[10] = biological target: T4, full-length human 14-3-3σ fused to the …; assay: FP

Binder {Biotin-ttds}-SSRTRRE[pT]QL [HPV16 E6 phospho-PBM peptide p16E6] has a Kd [1] of 91.7 µM, a Kd [2] of 80.5 µM and a Kd [3] of 144 µM. The Kd [4] was over 300 µM, the Kd [5] was 37.2 µM and the Kd [6] was 80.5 µM. It also gave a Kd [7] of 91.7 µM and a Kd [8] of 161 µM.

Binder {Biotin-ttds}-RLQRRRE[pT]QV [HPV18 E6 phospho-PBM peptide p18E6] has a Kd [1] of 19.3 µM, a Kd [9] of 37.3 µM and a Kd [10] of 139 µM. For the same binder, the Kd [3] was 37.8 µM, the Kd [4] was 139 µM and the Kd [5] was 11.1 µM. For the same binder, the Kd [6] was 23.6 µM, the Kd [7] was 19.3 µM and the Kd [8] was 37.3 µM.
